B5: parental anti-CTLA4 antibody (9D9), murine IgG2a (antibody)
light: DIVMTQTTLSLPVSLGDQASISCRSSQSIVHSNGNTYLEWYLQKPGQSPKLLIYKVSNRFSGVPDRFSGSGSGTDFTLKISRVEAEDLGVYYCFQGSHVPYTFGGGTKLEIKRADAAPTVSIFPPSSEQLTSGGASVVCFLNNFYPKDINVKWKIDGSERQNGVLNSWTDQDSKDSTYSMSSTLTLTKDEYERHNSYTCEATHKTSTSPIVKSFNRNEC
heavy: EAKLQESGPVLVKPGASVKMSCKASGYTFTDYYMNWVKQSHGKSLEWIGVINPYNGDTSYNQKFKGKATLTVDKSSSTAYMELNSLTSEDSAVYYCARYYGSWFAYWGQGTLITVSSAKTTAPSVYPLAPVCGDTTGSSVTLGCLVKGYFPEPVTLTWNSGSLSSGVHTFPAVLQSDLYTLSSSVTVTSSTWPSQSITCNVAHPASSTKVDKKIEPRGPTIKPCPPCKCPAPNLLGGPSVFIFPPKIKDVLMISLSPIVTCVVVDVSEDDPDVQISWFVNNVEVHTAQTQTHREDYNSTLRVVSALPIQHQDWMSGKEFKCKVNNKDLPAPIERTISKPKGSVRAPQVYVLPPPEEEMTKKQVTLTCMVTDFMPEDIYVEWTNNGKTELNYKNTEPVLDSDGSYFMYSKLRVEKKNWVERNSYSCSVVHEGLHNHHTTKSFSRTPGK
notes: Made at ATUM by HEK293 transient expression as murine IgG2a; reactive against murine CTLA4; also called 9D9.IgG2a; 9D9 IgG2a

Key:
[1] = target: T1, CTLA4 coated on an MSD plate (Homo sapiens (Human), UniProt P16410 36-161); assay: binding to a CTLA4-coated MSD plate; antibody from plasma of MB49-bearing B-hCTLA4 mice 4 days after 10 mg/kg, IgG quantified by ELISA, 3-fold dilutions (Example 16)
T1 construct: not shown: The carrier of the coated recombinant CTLA4; It is probably the Fc of a CTLA4-Fc, as in the other ELISAs

[2] = target: T2, human CTLA4-Fc (R&D Systems, #7268-CT) (human, UniProt P16410 36-162); assay: low density antigen binding ELISA, human CTLA4-Fc coated; control not exposed to protease
T2 construct: Bought; not shown: Fc part

[3] = target: T2, human CTLA4-Fc (R&D Systems, #7268-CT); assay: ELISA, human CTLA4-Fc coated; protease -
[4] = target: T2, human CTLA4-Fc (R&D Systems, #7268-CT); assay: CTLA4 ELISA (luminescence) after culture of the antibody in RPMI as control
[5] = target: T2, human CTLA4-Fc (R&D Systems, #7268-CT); assay: ELISA, human CTLA4-Fc coated; protease +
[6] = target: T2, human CTLA4-Fc (R&D Systems, #7268-CT); assay: ELISA, human CTLA4-Fc coated; protease -; remark: listed apart in the source
[7] = target: T2, human CTLA4-Fc (R&D Systems, #7268-CT); assay: CTLA4 ELISA (luminescence) after culture of the antibody in colon tumor conditioned media
[8] = target: T2, human CTLA4-Fc (R&D Systems, #7268-CT); assay: low density antigen binding ELISA, human CTLA4-Fc coated; no protease
[9] = target: CTLA4 on CTLA4 expressing Jurkat cells (UniProt P16410 36-223, limits assumed); assay: cell-based or functional assay
[10] = target: T2, human CTLA4-Fc (R&D Systems, #7268-CT); assay: CTLA4 ELISA (luminescence) after culture of the masked antibody in RPMI as control
[11] = target: T1, CTLA4 coated on an MSD plate; assay: binding to a CTLA4-coated MSD plate; antibody from plasma of MB49-bearing B-hCTLA4 mice 4 days after 10 mg/kg (28 % cleaved by FIG. 24D), IgG quantified by ELISA, 3-fold dilutions (Example 16)
[12] = target: T2, human CTLA4-Fc (R&D Systems, #7268-CT); assay: CTLA4 ELISA (luminescence) after culture of the non-cleavable masked antibody in colon tumor conditioned media
[13] = target: T2, human CTLA4-Fc (R&D Systems, #7268-CT); assay: CTLA4 ELISA (luminescence) after culture of the non-cleavable masked antibody in RPMI as control
[14] = target: T2, human CTLA4-Fc (R&D Systems, #7268-CT); assay: CTLA4 ELISA (luminescence) after culture of Antibody 2-14 in colon tumor conditioned media; the text gives 100% of molecules cleaved
[15] = target: T3, muCTLA4hsIgG protein (Abcam) (murine, UniProt P09793 36-161, limits assumed); assay: low density antigen binding ELISA, muCTLA4hsIgG coated; average of three experiments
T3 construct: Bought; also called murine CTLA4; not shown: human IgG part (hsIgG)

[16] = target: T4, murine CTLA4-Fc (R&D Systems) (murine, UniProt P09793 36-162); assay: ELISA: plate coated with murine CTLA4-Fc (R&D Systems), detection anti-muKappa-HRP, chemiluminescence (Example 3A)
T4 construct: Bought; also called muCTLA4-hsIgG (R&D Systems); not shown: human IgG Fc part (hsIgG)

[17] = target: T2, human CTLA4-Fc (R&D Systems, #7268-CT); assay: CTLA4 ELISA (luminescence) after culture of Antibody 2-16 in colon tumor conditioned media; the text gives 100% of molecules cleaved
[18] = target: B5; assay: SPR, Biacore T200, 37 C; 9D9 coupled to CM5 chip, peptide as analyte; steady-state model
[19] = target: T2, human CTLA4-Fc (R&D Systems, #7268-CT); assay: low density antigen binding ELISA, human CTLA4-Fc coated; after protease digestion
[20] = target: T2, human CTLA4-Fc (R&D Systems, #7268-CT); assay: ELISA, human CTLA4-Fc coated; protease +; remark: listed apart in the source
[21] = target: T3, muCTLA4hsIgG protein (Abcam); assay: low density antigen binding ELISA, 3 ng muCTLA4hsIgG per well
[22] = target: T4, murine CTLA4-Fc (R&D Systems); assay: ELISA, plate-coated murine CTLA4-Fc, anti-muKappa-HRP; ratio of EC50s

T2 sequence (P16410 36-162 limits assumed): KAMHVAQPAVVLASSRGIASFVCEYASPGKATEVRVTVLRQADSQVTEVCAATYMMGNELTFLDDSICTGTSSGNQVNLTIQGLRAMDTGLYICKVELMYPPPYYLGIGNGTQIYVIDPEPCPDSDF
Chain of CTLA4 on CTLA4 expressing Jurkat cells (P16410 36-223 limits assumed): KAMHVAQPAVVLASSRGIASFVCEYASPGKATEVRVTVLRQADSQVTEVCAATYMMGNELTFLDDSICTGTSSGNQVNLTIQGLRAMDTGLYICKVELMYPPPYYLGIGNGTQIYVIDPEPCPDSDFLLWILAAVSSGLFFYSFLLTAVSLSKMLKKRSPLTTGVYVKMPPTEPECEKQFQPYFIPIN
T1 sequence (P16410 36-161 limits assumed): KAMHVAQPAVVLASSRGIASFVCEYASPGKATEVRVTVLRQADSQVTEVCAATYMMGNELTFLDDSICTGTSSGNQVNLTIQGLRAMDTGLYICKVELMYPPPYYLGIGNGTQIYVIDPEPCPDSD

B1: Antibody 2-6 (antibody, human IgG1, kappa)
light: EIVLTQSPDFQSVTPKEKVTITCSANSALSYMYWYQQKPDQSPKLWVHGTSNLASGVPSRFSGSGSGTDFTLTINSLEAEDAATYYCHHWSNTQWTFGGGTKVEIKRTVAAPSVFIFPPSDEQLKSGTASVVCLLNNFYPREAKVQWKVDNALQSGNSQESVTEQDSKDSTYSLSSTLTLSKADYEKHKVYACEVTHQGLSSPVTKSFNRGEC
heavy: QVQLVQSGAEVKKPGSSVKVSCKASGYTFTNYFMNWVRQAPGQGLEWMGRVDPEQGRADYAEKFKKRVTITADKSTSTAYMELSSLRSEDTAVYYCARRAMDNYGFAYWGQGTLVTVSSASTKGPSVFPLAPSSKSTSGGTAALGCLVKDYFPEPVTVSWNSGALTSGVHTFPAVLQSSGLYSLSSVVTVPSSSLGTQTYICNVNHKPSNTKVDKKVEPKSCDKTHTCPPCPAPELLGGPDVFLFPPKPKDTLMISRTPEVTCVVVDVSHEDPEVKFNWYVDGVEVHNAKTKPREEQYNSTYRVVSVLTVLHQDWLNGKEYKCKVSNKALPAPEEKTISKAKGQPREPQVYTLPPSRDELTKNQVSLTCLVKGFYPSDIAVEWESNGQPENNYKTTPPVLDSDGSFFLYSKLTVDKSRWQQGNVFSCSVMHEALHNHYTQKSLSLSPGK
notes: Unmasked version of Antibody 2 with S239D and I332E in the Fc region; also called unmasked parental antibody; parental unmasked Antibody 2-6
In the case of B1, the “EC50 (read off the curve)” value [1] is reported as ~7 ng/mL, the EC50 [2] is reported as 0.69 nM and the EC50 [3] is reported as 0.39 nM. The “EC50 (read off the curve)” value [4] was ~0.6 nM, the EC50 [5] was 0.39 nM and the EC50 [6] was 0.69 nM. The “EC50 (read off the curve)” value [7] was ~0.4 nM, the EC50 [8] was 0.69 nM and the “EC50 of FcγRIIIa (ADCC) reporter activation, after exposure to protease” value (“EC50 of FcγRIIIa … to protease” below) [9] was 0.0049 ng/mL. For the same binder, the “EC50 of FcγRIIIa (ADCC) reporter activation, without protease” value (“EC50 of FcγRIIIa … without protease” below) [9] was 0.008 ng/mL.

B2: Antibody 2-14 (antibody, human IgG1, kappa)
light: ACPGKGLPSCGGGSSGGSGVPLSLYSGGEIVLTQSPDFQSVTPKEKVTITCSANSALSYMYWYQQKPDQSPKLWVHGTSNLASGVPSRFSGSGSGTDFTLTINSLEAEDAATYYCHHWSNTQWTFGGGTKVEIKRTVAAPSVFIFPPSDEQLKSGTASVVCLLNNFYPREAKVQWKVDNALQSGNSQESVTEQDSKDSTYSLSSTLTLSKADYEKHKVYACEVTHQGLSSPVTKSFNRGEC
heavy: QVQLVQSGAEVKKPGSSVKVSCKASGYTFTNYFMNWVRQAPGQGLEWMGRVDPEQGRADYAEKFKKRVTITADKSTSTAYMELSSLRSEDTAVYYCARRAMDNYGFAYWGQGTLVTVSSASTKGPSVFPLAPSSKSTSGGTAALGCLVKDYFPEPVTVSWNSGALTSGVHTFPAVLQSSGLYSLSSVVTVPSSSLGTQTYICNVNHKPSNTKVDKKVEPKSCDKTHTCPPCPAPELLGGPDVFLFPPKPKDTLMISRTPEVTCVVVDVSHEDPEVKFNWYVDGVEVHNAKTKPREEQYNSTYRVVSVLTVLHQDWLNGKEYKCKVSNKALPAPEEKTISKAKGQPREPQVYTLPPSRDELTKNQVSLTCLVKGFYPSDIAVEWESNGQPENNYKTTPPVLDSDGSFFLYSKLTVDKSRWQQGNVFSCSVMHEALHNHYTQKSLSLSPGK
B2 was tested, and the “EC50 (read off the curve)” value [10] was ~10 nM, the EC50 [3] was 39.4 nM and the “EC50 (read off the curve)” value [11] was ~20 ng/mL. The “EC50 of FcγRIIIa … without protease” value [9] was 33 ng/mL.

B3: Antibody 2-15 (antibody, human IgG1, kappa)
light: ACPGKGLPSCGGGSSGGSGGSGGSGSGGEIVLTQSPDFQSVTPKEKVTITCSANSALSYMYWYQQKPDQSPKLWVHGTSNLASGVPSRFSGSGSGTDFTLTINSLEAEDAATYYCHHWSNTQWTFGGGTKVEIKRTVAAPSVFIFPPSDEQLKSGTASVVCLLNNFYPREAKVQWKVDNALQSGNSQESVTEQDSKDSTYSLSSTLTLSKADYEKHKVYACEVTHQGLSSPVTKSFNRGEC
heavy: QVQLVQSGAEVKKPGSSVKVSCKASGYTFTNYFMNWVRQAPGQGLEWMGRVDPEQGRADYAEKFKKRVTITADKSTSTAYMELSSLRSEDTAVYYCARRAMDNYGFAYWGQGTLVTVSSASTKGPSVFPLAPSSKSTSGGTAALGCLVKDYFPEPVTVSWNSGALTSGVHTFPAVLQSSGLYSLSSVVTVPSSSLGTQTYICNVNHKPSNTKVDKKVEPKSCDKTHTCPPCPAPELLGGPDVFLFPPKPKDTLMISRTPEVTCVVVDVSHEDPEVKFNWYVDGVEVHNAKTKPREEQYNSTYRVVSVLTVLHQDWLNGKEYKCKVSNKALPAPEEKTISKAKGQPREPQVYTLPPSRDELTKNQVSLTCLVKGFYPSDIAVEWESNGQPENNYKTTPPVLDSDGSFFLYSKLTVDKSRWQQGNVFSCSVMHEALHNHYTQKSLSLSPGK
In the case of B3, the EC50 [3] is reported as 24.3 nM, the EC50 [5] is reported as 17.3 nM and the “EC50 (read off the curve)” value [12] is reported as ~8 nM. The “EC50 (read off the curve)” value [13] was ~7 nM, the “EC50 of FcγRIIIa … to protease” value [9] was 10 ng/mL and the “EC50 of FcγRIIIa … without protease” value [9] was 19 ng/mL.

B4: Antibody 2-14, activated by protease (antibody)
light: EIVLTQSPDFQSVTPKEKVTITCSANSALSYMYWYQQKPDQSPKLWVHGTSNLASGVPSRFSGSGSGTDFTLTINSLEAEDAATYYCHHWSNTQWTFGGGTKVEIKRTVAAPSVFIFPPSDEQLKSGTASVVCLLNNFYPREAKVQWKVDNALQSGNSQESVTEQDSKDSTYSLSSTLTLSKADYEKHKVYACEVTHQGLSSPVTKSFNRGEC
heavy: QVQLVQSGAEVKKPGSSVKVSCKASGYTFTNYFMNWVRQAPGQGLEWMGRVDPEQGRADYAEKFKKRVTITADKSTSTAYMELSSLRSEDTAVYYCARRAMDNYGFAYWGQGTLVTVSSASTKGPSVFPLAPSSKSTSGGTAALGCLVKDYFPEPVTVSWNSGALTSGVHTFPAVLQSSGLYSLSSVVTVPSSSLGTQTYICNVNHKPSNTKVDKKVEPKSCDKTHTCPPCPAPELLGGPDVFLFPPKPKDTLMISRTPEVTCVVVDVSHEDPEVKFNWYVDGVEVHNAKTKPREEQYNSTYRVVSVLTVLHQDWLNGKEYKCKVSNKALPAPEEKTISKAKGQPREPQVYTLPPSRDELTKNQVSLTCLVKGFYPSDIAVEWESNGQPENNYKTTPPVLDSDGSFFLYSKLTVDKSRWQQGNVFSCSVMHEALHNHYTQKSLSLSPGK
notes: also called Antibody 2-14 with protease (+); not shown: remnant of the cleaved linker (part of VPLSLY and spacer SGG)
With B4 the EC50 [5] was 0.41 nM, the “EC50 (read off the curve)” value [14] was ~0.4 nM and the “EC50 of FcγRIIIa … to protease” value [9] was 0.0028 ng/mL.

With B5 the EC50 [15] was 0.31 nM and the “EC50 (read off the curve)” value [16] was ~0.2 nM.

B6: Antibody 2-16 (colon tumor) (antibody)
heavy chain: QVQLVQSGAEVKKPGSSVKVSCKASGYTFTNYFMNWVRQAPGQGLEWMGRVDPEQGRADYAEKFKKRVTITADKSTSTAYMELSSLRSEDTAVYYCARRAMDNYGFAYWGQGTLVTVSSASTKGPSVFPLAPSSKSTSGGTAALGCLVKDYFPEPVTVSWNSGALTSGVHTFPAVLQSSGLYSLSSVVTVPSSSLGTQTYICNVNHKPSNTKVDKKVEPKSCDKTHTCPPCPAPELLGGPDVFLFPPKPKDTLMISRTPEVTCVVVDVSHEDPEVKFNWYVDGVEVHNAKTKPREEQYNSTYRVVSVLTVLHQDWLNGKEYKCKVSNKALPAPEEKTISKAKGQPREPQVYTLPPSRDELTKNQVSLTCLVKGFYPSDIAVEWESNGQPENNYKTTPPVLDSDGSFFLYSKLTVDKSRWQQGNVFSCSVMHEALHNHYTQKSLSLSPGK
light chain with masking components, cleaved: SGGEIVLTQSPDFQSVTPKEKVTITCSANSALSYMYWYQQKPDQSPKLWVHGTSNLASGVPSRFSGSGSGTDFTLTINSLEAEDAATYYCHHWSNTQWTFGGGTKVEIKRTVAAPSVFIFPPSDEQLKSGTASVVCLLNNFYPREAKVQWKVDNALQSGNSQESVTEQDSKDSTYSLSSTLTLSKADYEKHKVYACEVTHQGLSSPVTKSFNRGEC
notes: also called Antibody 2-16 after culture in colon tumor conditioned media (colon2 4 sept colon tumor sample)
In the case of B6, the “EC50 (read off the curve)” value [17] is reported as ~0.4 nM.

B7: masking peptide CNLIVEGHC (peptide)
peptide: CNLIVEGHC
notes: Selected from the Ph.D.-C7C phage library; also called sterically occluded peptide
Binder B7 has a Kd [18] of 11000 nM.

B8: Antibody 2-7 (Activated) (antibody)
light: EIVLTQSPDFQSVTPKEKVTITCSANSALSYMYWYQQKPDQSPKLWVHGTSNLASGVPSRFSGSGSGTDFTLTINSLEAEDAATYYCHHWSNTQWTFGGGTKVEIKRTVAAPSVFIFPPSDEQLKSGTASVVCLLNNFYPREAKVQWKVDNALQSGNSQESVTEQDSKDSTYSLSSTLTLSKADYEKHKVYACEVTHQGLSSPVTKSFNRGEC
heavy: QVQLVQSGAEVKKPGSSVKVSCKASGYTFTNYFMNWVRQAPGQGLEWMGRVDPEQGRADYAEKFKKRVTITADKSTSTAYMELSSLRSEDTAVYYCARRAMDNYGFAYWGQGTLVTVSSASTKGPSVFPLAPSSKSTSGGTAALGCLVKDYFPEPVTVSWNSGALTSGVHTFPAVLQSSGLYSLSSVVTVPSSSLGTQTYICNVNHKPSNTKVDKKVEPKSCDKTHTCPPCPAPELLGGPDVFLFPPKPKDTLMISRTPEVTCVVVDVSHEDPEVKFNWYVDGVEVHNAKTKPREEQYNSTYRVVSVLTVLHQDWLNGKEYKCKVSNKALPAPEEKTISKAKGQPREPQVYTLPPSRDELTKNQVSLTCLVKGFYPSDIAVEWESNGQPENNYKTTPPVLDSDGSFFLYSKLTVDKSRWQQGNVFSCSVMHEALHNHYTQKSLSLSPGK
notes: also called Antibody 2-7 with protease; not shown: remnant of the cleaved linker (part of VPLSLY and spacer SGG)
Work on B8 yielded an EC50 [19] of 0.58 nM and an EC50 [20] of 0.58 nM.

B9: activatable masked anti-CTLA4 antibody (masked 9D9) (antibody, mouse IgG2a, kappa)
light: ACNLIVEGHCGGSVPLSLYSGGGDIVMTQTTLSLPVSLGDQASISCRSSQSIVHSNGNTYLEWYLQKPGQSPKLLIYKVSNRFSGVPDRFSGSGSGTDFTLKISRVEAEDLGVYYCFQGSHVPYTFGGGTKLEIKRADAAPTVSIFPPSSEQLTSGGASVVCFLNNFYPKDINVKWKIDGSERQNGVLNSWTDQDSKDSTYSMSSTLTLTKDEYERHNSYTCEATHKTSTSPIVKSFNRNEC
heavy: EAKLQESGPVLVKPGASVKMSCKASGYTFTDYYMNWVKQSHGKSLEWIGVINPYNGDTSYNQKFKGKATLTVDKSSSTAYMELNSLTSEDSAVYYCARYYGSWFAYWGQGTLITVSSAKTTAPSVYPLAPVCGDTTGSSVTLGCLVKGYFPEPVTLTWNSGSLSSGVHTFPAVLQSDLYTLSSSVTVTSSTWPSQSITCNVAHPASSTKVDKKIEPRGPTIKPCPPCKCPAPNLLGGPSVFIFPPKIKDVLMISLSPIVTCVVVDVSEDDPDVQISWFVNNVEVHTAQTQTHREDYNSTLRVVSALPIQHQDWMSGKEFKCKVNNKDLPAPIERTISKPKGSVRAPQVYVLPPPEEEMTKKQVTLTCMVTDFMPEDIYVEWTNNGKTELNYKNTEPVLDSDGSYFMYSKLRVEKKNWVERNSYSCSVVHEGLHNHHTTKSFSRTPGK
notes: Murine IgG2a; also called masked anti-CTLA4 antibody 2
For B9, the “fold lower binding than parental anti-CTLA4 antibody” value [21] was ~156 fold, the EC50 [15] was 48.4 nM and the “fold lower binding than parental anti-CTLA4 antibody (9D9)” value [22] was 90 fold.

— patent US20220073613A1 (XILIO DEVELOPMENT, published 2022)
